The NTF2 design screens of Basanta et al. (2020)

Test: protease stability score; higher = more stable; yeast display proteolysis, trypsin and chymotrypsin;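 note: relative to predicted unfolded state with 0 unfolded-like and 1 meaning tenfold more protease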

Row | Sequence | protease stability score
1 | GEEQEDIKKFLEDDMEAWSTGDFRQLKRNMDPHVRIVINGRHLHGMETFEHFFEHLRVRITSLELKRVEAVGDKVSYDGELDFELDYNGRRLSQRTRVEFRIEKINGRWILHYVIFR | 0.329
2 | GEHEDYILHIVDLFIHNILTGDWDAILKLMDPDVRFEIEINGRTIEIHGWEQIKRIMDEIKERADHLHIEIRDKFSVNGVAFFEGTIEIRVGDKRHREDVEIILFVVDGRIKIIRKRDV | 1.99
3 | GEKEELSRLALHLWFRDYHTGDEDSAHRLLDPNVRLHVGDKHFVGRERFTRFWHEVYRELRIDDYILHSEDIQGDKIHMDGRIDGVVGDKREDFRTEIHLIWIDGKLHSEKRDKE | 0.902
4 | GELEKLATTIVRLWVRHWYTGDEESSMRLMDPNARIIINGKEMHGRELYVHFLRRVLEHIRPESVDIEEVKIQGDYAHIDITEHRRIGDKEVTFRTEVSIIVINGKVTEVHMEIR | 1.7
5 | GEMEKLLFKIFEEWMKLRKTGDEDVIAHLADPDYRWDVNGVDLHGMEHVKEFTEEFLRHLGFDHQEYRIRRFDHDGNKLRADTEVRIVVNGVDITHRTHIIIVQFNGKVKSVKERIR | 0.292
6 | GENEQLIEEAVKMFMDIHHTGDWRDVHHLLDPHMRLDVNGVDYHGRDLWVRIAKEISEHARTEVRIRHLEIQGDKVIVHGQIILRIGDKTHVIDTRHIIIKINGRWKLHSVDIH | 1.32
7 | HDDEEIIKREIDFFLEVLLTGDWRHLNELLDPHARLEIGDKRFHGREAVIKEIRTFIERFGVDHSEIDTVNIQGEKAEYKFTLKVGDKRHELHITMTKINGRWYITEVKFS | 1.79
8 | HDDHESADKFIREEIEYQRTGDWHRFEELLDPDVRLEQGNYHAHGREEVSTIFLMHLTRVKNMRMEVTRMEIINGRLSLHLKLDFNGREFHFSTIVQKVNGKWIIKAEHFI | 0.507
9 | HDDQKESHEWAKLFEDWLQTGDEESILKQLDPHVRIEIGDKRNHGREELHRYEHEFWTKFGIDHIHIDDIRVQGEKVHLETTVIVNGRKFQQIIIVVFIDGVMQRLVIEDR | 0.798
10 | HDEDEESRNAVEEYWRVLHTGDEKRWHELADPNVRNEIDGRTYHGRESFRFLFHLHEEKFKNVKIELHSVNIQGDKIKMLIEIKYGDKNIHMIIIAQKIDGKWKNERIHVFHH | 0.744
11 | HDEEKHDREYVEEMLEVWLTGDFDRIMHLFDPNARQEVNGVDIVGRERLHEFNRRWEEDMGFDHSHTHHVEVVNGRVHSDTRVHFNGREMETHLDLRVVNGRIKSIRVSYN | 0.094
12 | HDEERDSKIASSIMVETWKTGNEHLMERMFDPHTRSHVGDKEIHGMEEFIRWLYELLRKIKNARFTVEDTDLINGVVVVITRLHVGDKDFLLTFFVEKFNGRWHLRSFEMK | 0.772
13 | HDEERELTIVSERIIKIFETGDWEELHKMADPRVKVIVNGRETHGMERYVKHLEQIRTILTNIHLHDVDLQGDFLHIDLEARGRILVNGRDTTFNWELKITIDKFDGRWRMKRINVN | 2.16
14 | HDEEREVHEWIKLIEHHLRTGDEDAVRKLVDPTVRNDINGVDVVGRREDVERLHQADHIDIELKHVEIQGDKLHIDGVLILDFNGRHFYFRMKIIASKYNGVWKIKEKRVH | 0.999
15 | HDHDKHLDRLEELMLRWWKTGDWDKILKYADPHTRSDVNGKEYHGRESMVRAFEHVLKMLGIDVVYDQSHHLQGEKAKFHQESRVGDKRVEVIIIITIVDGRVTEFEVEVHHN | 0.722
16 | HDKEHLSEYLLDLTEYLIRTGDFKLMLKMADPHVRNHIIIGEFELEYHGWHVYIHWLEKVLRRFGVDHVHVTHRNAQGDKVEMDTHLEVNGRRHDVDQHWVYINGRIEHVRFRIR | 0.794
17 | HDKEKEDKEWIKRLLDTIETGDPEQFSHLADPNVKAEFENHDSVGMEEVFKILEHLRIDHVRMKDMRIQGDWVHLITEMDGTINGKKIILKSRIIALKVNGRWVLTSTSLK | 1.42
18 | HDLEETVRDMIHLLMTFVETGDEDSVHRLIDPHVRVEVGDKLTHGRQWVHLLIKRADVLEIRIEDMRIVGDKALIVSKYHIRIDGVFIVYNIDIYAEKIDGRWVTTEIKVD | 1.71

Row | Sequence | protease stability score
19 | HDLEKFLDHFFEKLMKELETGDEQSWRRLADPRARLHINGKDFHGREFEHELRNKWGVSRVEEKLDSRDVIGNKLILDGSLSVNGKEIKAILFVQKVDGKWEFKEIEVH | 1.34
20 | HDLEKLVKFWYELWLRLLLTGDEEIFSHLADPNARLEVDGVEFVGREQVLKDLKRRMEEMRLTSMIITHVDWQGEKNRTEGITHGRINGVDITSETHLVLVIVNGRIRSIRIEIR | 1.54
21 | HDMEERSKHVHHIILRSLRTGDEDAYERLADPDTRLHVGDKNIHGRESIRNIWREILERIPNMRIELELEDSEIVGDYIYLKINLRMNFDGREVEHEIRIVSLKINGRWVEKSVHFR | 0.591
22 | HDQDESAKWVIEVLIRASYTGDFDMFIKYFDPNAKSLIDGKTFHGREDLKRHMDRFDHITHVRFHLRDRKMVGDKLIIHGQLEVHGYQGDWEIHMTRDVHIILRKVDGRWHIEELRLE | 2.18
23 | HDREKIAITFLKFLIHWHLTGNEDHLRENIDPHVRIRIHIDGKNNHLVGMEDWYKWVREELERADHLELRLDDVDVQGDKLHSDITNIIRIDGKTIVRKVHVHLDVVNGQVKSIEIEIR | 2.54
24 | HDREKLMEELVKNWIHLLKTGDEDQLHRLLDPHAKWDINGRELHGMEHINRRISEWRIEFNERHVEVIGEKIHIEGDLRVEIDGRRDEFHSEIELVIVNGRVKEIIVREG | 0.895
25 | HDRKREIDHVLKLWINHFKTGDEDFHERNMDPHVRLHQGNYETHGREEVKKFLKRLFDEFGADHIHIRDYRIDVQGDKITIVMEVEIRVGNYRIDIEFILYVAKVDGKWHVHHYEIRNH | 1.06
26 | HDRNEIIREALRILIHSILTGDEDHLREFADPHVKSDINGQEFHGREVFFMWLLHMRIQTVTIKHVDVQGEKARVYSSIHGDVDGQRTEYHTEIFSQKVNGRWIIRTIRVE | 1.16
27 | HEDDELLRQNVKVLLDMVETGDEHTLENMLDPHVRFEAENHHHHGRENLIRALKELLTRLGVKHWRSFEVERIDIQGDFIFLDTVFIMEVDGRKRKIKIHIVARKINGRWLIESIRLD | 1.48
28 | HEDDEMKKKWFEEWERRIHTGDEEEINKLADPHVRLEIGDKTRHGREEFTRYLWEFLYEFGANHVEIRYEEIRIINGVVHIRSRIHIHVDGRHIHLETHLIVFKFDGQWRLHTLHYK | 0.872
29 | HEDDHAVRKTIEDLLRSITTGDFELYSKLADPNTRFNIDGVNDVGMEIWVEKAIQHGWKVRHFHIRDVEVQGDKIDVDLKIDEDVNGRRIDIHVLLIIRKIDGRWILESVEHV | 1.64
30 | HEDDHQAERITHITMHAILTGDWRRMEELLDPHYRIEFENHENIGRERVNKVLIDLGIRNEIEIKRIRFQGDFVEIDGKLKIDVGDKHIEIKVRLFYVKINGRWFHHHVDLR | 0.835
31 | HEDDRIVQEHWKRLSEAWLTGDEERAKKNADPNTREVINGKELHGREEVTRLYREIRRSIEHVEIRDSRIQGDKLLIDVNMVISVIIGDKEFRIEVRVNVIMIKFDGVWHLETVHFH | 0.187
32 | HEDEDILREALKTLRHSIQTGDEDLLRELMDPNVRLETEHERLHGWEYVSKFMMDLYKRYDHMEYTVHDYKVYGDFLRVDVQLDVKQGEKDDVISTHMLALKFDGKWHIKKIIIE | 1.56
33 | HEDEDLLEELARKYKHHLETGDEHIIRRLVDPHVRIEQGEKKLIGREEFLRILTELLRSWGVTRFEFRIEDFRLQGDKAHMRGSVEVGDFHHDVEIVSRKIDGRWVITHYHEI | 0.118
34 | HEDEEEMKKFIHRWENDLRTGDEESHRRLADPNTLLVVNGRRVHGMEAVLHIVREMRLHEVYIDDIRIINGRAHTELTVKGEIDGVKHWSHTHIHVTKVNGQWHIDTIRIL | 0.663
35 | HEDEEEQRLANEIFHKMIWTGDEERLKDLMDPHVRIDVNGREVHGMEEWLEHFLQFKNMKFRVHFRENRIIDGVARSRTELRIIFDGREYRIDLIVIAQKINGRWILRSIEIR | 1.34
36 | HEDEEHALKLTMDFLRWIYTGDEDTLNKYADPNVRLDIGDKVFHGMEFINKHMKELRFHRIHVKRFEAHVVDGKLRSHMDVRIDGNVDGRRRETDVELIFFWEKIDGRWVNTSIIIHHH | 1.27
